Measurements taken from patent US5847088A, “Antibodies specific for platelet-activating factor acetylhydrolase” (ICOS Corporation, priority 1995, dated 1998).

Test: PAF-AH activity of PAF-AH products expressed in E. coli (hydrolysis of 3H-acetate from [acetyl-3H] PAF)
Assay type: biochemical
Settings: amino acid substitution products expressed in E. coli

B1: S108A: PAF-AH analog with single amino acid substitution, expressed in E. coli (protein)
chain: MVPPKLHVLFCLCGCLAVVYPFDWQYINPVAHMKSSAWVNKIQVLMAAASFGQTKIPRGNGPYSVGCTDLMFDHTNKGTFLRLYYPSQDNDRLDTLWIPNKEYFWGLAKFLGTHWLMGNILRLLFGSMTTPANWNSPLRPGEKYPLVVFSHGLGAFRTLYSAIGIDLASHGFIVAAVEHRDRSASATYYFKDQSAAEIGDKSWLYLRTLKQEEETHIRNEQVRQRAKECSQALSLILDIDHGKPVKNALDLKFDMEQLKDSIDREKIAVIGHSFGGATVIQTLSEDQRFRCGIALDAWMFPLGDEVYSRIPQPLFFINSEYFQYPANIIKMKKCYSPDKERKMITIRGSVHQNFADFTFATGKIIGHMLKLKGDIDSNVAIDLSNKASLAFLQKHLGLHKDFDQWDCLIEGDDENLIPGTNINTTNQHIMLQNSSGIEKYN
  PAF-AH activity: ++++ (wild type PAF-AH activity of about 40-60 U/ml/OD600)

B2: S273A: PAF-AH analog, Ser273 changed to alanine (protein)
chain: MVPPKLHVLFCLCGCLAVVYPFDWQYINPVAHMKSSAWVNKIQVLMAAASFGQTKIPRGNGPYSVGCTDLMFDHTNKGTFLRLYYPSQDNDRLDTLWIPNKEYFWGLSKFLGTHWLMGNILRLLFGSMTTPANWNSPLRPGEKYPLVVFSHGLGAFRTLYSAIGIDLASHGFIVAAVEHRDRSASATYYFKDQSAAEIGDKSWLYLRTLKQEEETHIRNEQVRQRAKECSQALSLILDIDHGKPVKNALDLKFDMEQLKDSIDREKIAVIGHAFGGATVIQTLSEDQRFRCGIALDAWMFPLGDEVYSRIPQPLFFINSEYFQYPANIIKMKKCYSPDKERKMITIRGSVHQNFADFTFATGKIIGHMLKLKGDIDSNVAIDLSNKASLAFLQKHLGLHKDFDQWDCLIEGDDENLIPGTNINTTNQHIMLQNSSGIEKYN
  PAF-AH activity: - (<1 U/ml/OD600 activity)

B3: H351A: PAF-AH analog, His351 changed to alanine (protein)
chain: MVPPKLHVLFCLCGCLAVVYPFDWQYINPVAHMKSSAWVNKIQVLMAAASFGQTKIPRGNGPYSVGCTDLMFDHTNKGTFLRLYYPSQDNDRLDTLWIPNKEYFWGLSKFLGTHWLMGNILRLLFGSMTTPANWNSPLRPGEKYPLVVFSHGLGAFRTLYSAIGIDLASHGFIVAAVEHRDRSASATYYFKDQSAAEIGDKSWLYLRTLKQEEETHIRNEQVRQRAKECSQALSLILDIDHGKPVKNALDLKFDMEQLKDSIDREKIAVIGHSFGGATVIQTLSEDQRFRCGIALDAWMFPLGDEVYSRIPQPLFFINSEYFQYPANIIKMKKCYSPDKERKMITIRGSVAQNFADFTFATGKIIGHMLKLKGDIDSNVAIDLSNKASLAFLQKHLGLHKDFDQWDCLIEGDDENLIPGTNINTTNQHIMLQNSSGIEKYN
  PAF-AH activity: - (<1 U/ml/OD600 activity)

B4: D338A: PAF-AH analog with single amino acid substitution (protein)
chain: MVPPKLHVLFCLCGCLAVVYPFDWQYINPVAHMKSSAWVNKIQVLMAAASFGQTKIPRGNGPYSVGCTDLMFDHTNKGTFLRLYYPSQDNDRLDTLWIPNKEYFWGLSKFLGTHWLMGNILRLLFGSMTTPANWNSPLRPGEKYPLVVFSHGLGAFRTLYSAIGIDLASHGFIVAAVEHRDRSASATYYFKDQSAAEIGDKSWLYLRTLKQEEETHIRNEQVRQRAKECSQALSLILDIDHGKPVKNALDLKFDMEQLKDSIDREKIAVIGHSFGGATVIQTLSEDQRFRCGIALDAWMFPLGDEVYSRIPQPLFFINSEYFQYPANIIKMKKCYSPAKERKMITIRGSVHQNFADFTFATGKIIGHMLKLKGDIDSNVAIDLSNKASLAFLQKHLGLHKDFDQWDCLIEGDDENLIPGTNINTTNQHIMLQNSSGIEKYN
  PAF-AH activity: ++++ (wild type PAF-AH activity of about 40-60 U/ml/OD600)

B5: D286A: PAF-AH analog with single amino acid substitution (protein)
chain: MVPPKLHVLFCLCGCLAVVYPFDWQYINPVAHMKSSAWVNKIQVLMAAASFGQTKIPRGNGPYSVGCTDLMFDHTNKGTFLRLYYPSQDNDRLDTLWIPNKEYFWGLSKFLGTHWLMGNILRLLFGSMTTPANWNSPLRPGEKYPLVVFSHGLGAFRTLYSAIGIDLASHGFIVAAVEHRDRSASATYYFKDQSAAEIGDKSWLYLRTLKQEEETHIRNEQVRQRAKECSQALSLILDIDHGKPVKNALDLKFDMEQLKDSIDREKIAVIGHSFGGATVIQTLSEAQRFRCGIALDAWMFPLGDEVYSRIPQPLFFINSEYFQYPANIIKMKKCYSPDKERKMITIRGSVHQNFADFTFATGKIIGHMLKLKGDIDSNVAIDLSNKASLAFLQKHLGLHKDFDQWDCLIEGDDENLIPGTNINTTNQHIMLQNSSGIEKYN
  PAF-AH activity: - (<1 U/ml/OD600 activity)

B6: D286N: PAF-AH analog with single amino acid substitution (protein)
chain: MVPPKLHVLFCLCGCLAVVYPFDWQYINPVAHMKSSAWVNKIQVLMAAASFGQTKIPRGNGPYSVGCTDLMFDHTNKGTFLRLYYPSQDNDRLDTLWIPNKEYFWGLSKFLGTHWLMGNILRLLFGSMTTPANWNSPLRPGEKYPLVVFSHGLGAFRTLYSAIGIDLASHGFIVAAVEHRDRSASATYYFKDQSAAEIGDKSWLYLRTLKQEEETHIRNEQVRQRAKECSQALSLILDIDHGKPVKNALDLKFDMEQLKDSIDREKIAVIGHSFGGATVIQTLSENQRFRCGIALDAWMFPLGDEVYSRIPQPLFFINSEYFQYPANIIKMKKCYSPDKERKMITIRGSVHQNFADFTFATGKIIGHMLKLKGDIDSNVAIDLSNKASLAFLQKHLGLHKDFDQWDCLIEGDDENLIPGTNINTTNQHIMLQNSSGIEKYN
  PAF-AH activity: ++ (about 10-20 U/ml/OD600 activity)

B7: D304A: PAF-AH analog with single amino acid substitution (protein)
chain: MVPPKLHVLFCLCGCLAVVYPFDWQYINPVAHMKSSAWVNKIQVLMAAASFGQTKIPRGNGPYSVGCTDLMFDHTNKGTFLRLYYPSQDNDRLDTLWIPNKEYFWGLSKFLGTHWLMGNILRLLFGSMTTPANWNSPLRPGEKYPLVVFSHGLGAFRTLYSAIGIDLASHGFIVAAVEHRDRSASATYYFKDQSAAEIGDKSWLYLRTLKQEEETHIRNEQVRQRAKECSQALSLILDIDHGKPVKNALDLKFDMEQLKDSIDREKIAVIGHSFGGATVIQTLSEDQRFRCGIALDAWMFPLGAEVYSRIPQPLFFINSEYFQYPANIIKMKKCYSPDKERKMITIRGSVHQNFADFTFATGKIIGHMLKLKGDIDSNVAIDLSNKASLAFLQKHLGLHKDFDQWDCLIEGDDENLIPGTNINTTNQHIMLQNSSGIEKYN
  PAF-AH activity: ++++ (wild type PAF-AH activity of about 40-60 U/ml/OD600)

B8: C229S: PAF-AH analog, Cys229 mutated to serine (protein)
chain: MVPPKLHVLFCLCGCLAVVYPFDWQYINPVAHMKSSAWVNKIQVLMAAASFGQTKIPRGNGPYSVGCTDLMFDHTNKGTFLRLYYPSQDNDRLDTLWIPNKEYFWGLSKFLGTHWLMGNILRLLFGSMTTPANWNSPLRPGEKYPLVVFSHGLGAFRTLYSAIGIDLASHGFIVAAVEHRDRSASATYYFKDQSAAEIGDKSWLYLRTLKQEEETHIRNEQVRQRAKESSQALSLILDIDHGKPVKNALDLKFDMEQLKDSIDREKIAVIGHSFGGATVIQTLSEDQRFRCGIALDAWMFPLGDEVYSRIPQPLFFINSEYFQYPANIIKMKKCYSPDKERKMITIRGSVHQNFADFTFATGKIIGHMLKLKGDIDSNVAIDLSNKASLAFLQKHLGLHKDFDQWDCLIEGDDENLIPGTNINTTNQHIMLQNSSGIEKYN
  PAF-AH activity: + (1-10 U/ml/OD600 activity)

B9: C67S: PAF-AH analog, cysteine mutated to serine (protein)
chain: MVPPKLHVLFCLCGCLAVVYPFDWQYINPVAHMKSSAWVNKIQVLMAAASFGQTKIPRGNGPYSVGSTDLMFDHTNKGTFLRLYYPSQDNDRLDTLWIPNKEYFWGLSKFLGTHWLMGNILRLLFGSMTTPANWNSPLRPGEKYPLVVFSHGLGAFRTLYSAIGIDLASHGFIVAAVEHRDRSASATYYFKDQSAAEIGDKSWLYLRTLKQEEETHIRNEQVRQRAKECSQALSLILDIDHGKPVKNALDLKFDMEQLKDSIDREKIAVIGHSFGGATVIQTLSEDQRFRCGIALDAWMFPLGDEVYSRIPQPLFFINSEYFQYPANIIKMKKCYSPDKERKMITIRGSVHQNFADFTFATGKIIGHMLKLKGDIDSNVAIDLSNKASLAFLQKHLGLHKDFDQWDCLIEGDDENLIPGTNINTTNQHIMLQNSSGIEKYN
  PAF-AH activity: +++ (about 20-40 U/ml/OD600 activity)

B10: D296A: PAF-AH analog, Asp296 changed to alanine (protein)
chain: MVPPKLHVLFCLCGCLAVVYPFDWQYINPVAHMKSSAWVNKIQVLMAAASFGQTKIPRGNGPYSVGCTDLMFDHTNKGTFLRLYYPSQDNDRLDTLWIPNKEYFWGLSKFLGTHWLMGNILRLLFGSMTTPANWNSPLRPGEKYPLVVFSHGLGAFRTLYSAIGIDLASHGFIVAAVEHRDRSASATYYFKDQSAAEIGDKSWLYLRTLKQEEETHIRNEQVRQRAKECSQALSLILDIDHGKPVKNALDLKFDMEQLKDSIDREKIAVIGHSFGGATVIQTLSEDQRFRCGIALAAWMFPLGDEVYSRIPQPLFFINSEYFQYPANIIKMKKCYSPDKERKMITIRGSVHQNFADFTFATGKIIGHMLKLKGDIDSNVAIDLSNKASLAFLQKHLGLHKDFDQWDCLIEGDDENLIPGTNINTTNQHIMLQNSSGIEKYN
  PAF-AH activity: - (<1 U/ml/OD600 activity)

B11: Wild type: wild type human PAF-AH expressed in E. coli, control of mutation series (protein, UniProt Q13093 22-441, looked up)
Platelet-activating factor …: FDWQYINPVAHMKSSAWVNKIQVLMAAASFGQTKIPRGNGPYSVGCTDLMFDHTNKGTFLRLYYPSQDNDRLDTLWIPNKEYFWGLSKFLGTHWLMGNILRLLFGSMTTPANWNSPLRPGEKYPLVVFSHGLGAFRTLYSAIGIDLASHGFIVAAVEHRDRSASATYYFKDQSAAEIGDKSWLYLRTLKQEEETHIRNEQVRQRAKECSQALSLILDIDHGKPVKNALDLKFDMEQLKDSIDREKIAVIGHSFGGATVIQTLSEDQRFRCGIALDAWMFPLGDEVYSRIPQPLFFINSEYFQYPANIIKMKKCYSPDKERKMITIRGSVHQNFADFTFATGKIIGHMLKLKGDIDSNVAIDLSNKASLAFLQKHLGLHKDFDQWDCLIEGDDENLIPGTNINTTNQHIMLQNSSGIEKYN
  PAF-AH activity: ++++ (wild type PAF-AH activity of about 40-60 U/ml/OD600)
